Test results from US20220026415A1 (NATIONAL CANCER CENTER, published 2022).

Key:
Assay in all cases: immunoprecipitation with anti-RARRES1 antibody from RARRES1-transfected HEK293 cells with or without nocodazole, immunoblot
[1] = biological target: CDK2 (endogenous, HEK293 cells) (UniProt P24941 1-298)
Description: (§1) The cells were lysed in a lysis buffer (20 mM Tris, pH 7.4, 5 mM EDTA, 10 mM Na₄ P₂O₇, 100 mM NaF, 1% NP-40, 1 mM PMSF, 0.2% protease inhibitor cocktail and phosphatase inhibitor). The protein concentrations of the cell lysates were measured using a Pierce BCA Protein Assay kit (Pierce, Rockford, USA). Subsequently, protein lysates were resuspended in a loading buffer, boiled for 5 minutes, and then subjected to SDS-PAGE and immunoblotting with the indicated antibodies. For immunoprecipitation, a TAP buffer (25 mM Tris, pH 7.4, 140 mM NaCl, 0.5% NP-40, 10 mM NaF, 1 mM dithiothreitol (DTT), 1 mM phenylmethylsulphonyl fluoride, 1 mM EDTA, 1 mM Na₃VO₄, 1 mM β-glycerophosphate, 10% glycerol and 0.2% protease inhibitor cocktail and phosphatase inhibitor) was added to the cell lysates, and then the cell lysates were incubated along with a RARRES1 antibody (R & D System, MN, USA) or GST beads at 4° C. Protein expression was detected by chemiluminescence using the SuperSignal West Pico Chemiluminescent Substrate (Pierce).
(§2) In addition, it was examined whether RARRES1 interacted with other CDK-Cyclin complexes, including interphase CDKs (CDK2, CDK4, and CDK6) and their binding partner Cyclins, and immunoprecipitation according to Example 1-8 was performed on 293 cells under the same conditions as those in FIG. 7C.

[2] = biological target: Cyclin A (endogenous, HEK293 cells) (UniProt P20248 1-432, limits assumed)
Description: as §1, §2

[3] = biological target: CDK4 (endogenous, HEK293 cells) (UniProt P11802 2-303)
Description: as §1, §2

[4] = biological target: T1, Cyclin D (endogenous, HEK293 cells) (UniProt P24385 1-295, limits assumed)
T1 construct: Printed only as 'Cyclin D'; Cyclin D1 is inferred from the antibody list; also called Cyclin D1
Description: as §1, §2

Measured: binding result

T1 sequence (P24385 whole entry): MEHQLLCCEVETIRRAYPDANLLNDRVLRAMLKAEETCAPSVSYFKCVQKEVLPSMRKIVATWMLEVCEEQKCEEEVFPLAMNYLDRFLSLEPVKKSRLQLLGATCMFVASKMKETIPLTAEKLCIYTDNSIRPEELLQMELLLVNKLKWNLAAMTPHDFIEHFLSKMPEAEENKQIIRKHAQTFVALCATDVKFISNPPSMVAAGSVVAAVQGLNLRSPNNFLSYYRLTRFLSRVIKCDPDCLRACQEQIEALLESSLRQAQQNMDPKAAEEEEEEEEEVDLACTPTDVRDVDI
Chain of CDK4 (endogenous, HEK293 cells) (P11802 2-303 limits assumed): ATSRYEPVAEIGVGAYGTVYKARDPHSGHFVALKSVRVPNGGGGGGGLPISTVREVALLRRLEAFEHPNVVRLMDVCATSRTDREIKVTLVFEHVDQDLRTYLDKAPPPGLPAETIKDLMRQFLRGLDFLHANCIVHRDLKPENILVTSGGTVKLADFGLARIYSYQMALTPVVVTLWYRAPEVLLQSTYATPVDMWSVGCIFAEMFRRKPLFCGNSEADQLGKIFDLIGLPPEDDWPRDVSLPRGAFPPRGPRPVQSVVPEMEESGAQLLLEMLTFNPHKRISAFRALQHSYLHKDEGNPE
Chain of Cyclin A (endogenous, HEK293 cells) (P20248 whole entry): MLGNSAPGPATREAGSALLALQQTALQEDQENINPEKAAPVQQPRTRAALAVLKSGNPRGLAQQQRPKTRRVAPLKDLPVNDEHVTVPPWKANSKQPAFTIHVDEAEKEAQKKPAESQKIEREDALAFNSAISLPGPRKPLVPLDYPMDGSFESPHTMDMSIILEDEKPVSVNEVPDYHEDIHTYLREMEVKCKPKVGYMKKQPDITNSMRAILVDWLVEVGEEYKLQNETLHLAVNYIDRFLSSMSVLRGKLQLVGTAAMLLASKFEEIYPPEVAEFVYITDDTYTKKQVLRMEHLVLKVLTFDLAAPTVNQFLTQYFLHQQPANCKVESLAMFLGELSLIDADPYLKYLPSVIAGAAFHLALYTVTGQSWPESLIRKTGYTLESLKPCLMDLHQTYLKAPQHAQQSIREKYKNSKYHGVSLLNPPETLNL

B1: retinoic acid receptor responder 1 (RARRES1), isoform 1, wild type, overexpressed in HEK293 cells (other)
chain: MQPRRQRLPAPWSGPRGPRPTAPLLALLLLLAPVAAPAGSGDPDDPGQPQDAGVPRRLLQQAARAALHFFNFRSGSPSALRVLAEVQEGRAWINPKEGCKVHVVFSTERYNPESLLQEGEGRLGKCSARVFFKNQKPRPTINVTCTRLIEKKKRQQEDYLLYKQMKQLKNPLEIVSIPDNHGHIDPSLRLIWDLAFLGSSYVMWEMTTQVSHYYLAQLTSVRQWKTNDDTIDFDYTVLLHELSTQEIIPCRIHLVWYPGKPLKVKYHCQELQTPEEASGTEEGSAVVPTELSNF
notes: also called RARRES1-1
no binding: all assays above
